46 molecules from patent US20200338203A1 (Bicycle, published 2020) can be followed below.

The target in the test is T1, Human EphA2 (Ecto) (Human, UniProt P29317 24-537).
T1 construct: extracellular domain
Put plainly: FP competition; competitor Compound 18. As to the method:
Peptides without a fluorescent tag were tested in competition with a peptide with a fluorescent tag and a known Kd (Table 2). Peptides were diluted to an appropriate concentration in assay buffer as described in the direct binding assay with a maximum of 5% DMSO, then serially diluted 1 in 2. Five μL of diluted peptide was added to the plate followed by 10 μL of human or mouse EphA2 (Table 1) at a fixed concentration which was dependent on the fluorescent peptide used (Table 2), then 10 μL fluorescent peptide added. Measurements were conducted as for the direct binding assay, however the gain was determined prior to the first measurement.

Numbered stars: 1 amine (or outer) side, 2 acyl side, 3 side chain; on linkers, the order of the positions; unused ones are H or OH. Bridge positions count the residues as written; N and C are the ends. Square brackets hold non-standard residues; d marks the D form. Ends that are not written are not given here. Dip = N[C@H](C(=O)O)C(c1ccccc1)c1ccccc1; 1Nal = N[C@@H](Cc1cccc2ccccc12)C(=O)O; TBMB = c1c(C[*:1])cc(C[*:3])cc1C[*:2]; Ala(cPr) = N[C@@H](CC1CC1)C(=O)O; hArg = N=C(N)NCCCC[C@H](N)C(=O)O; Gly(cPr) = N[C@H](C(=O)O)C1CC1; Cba = N[C@@H](CC1CCC1)C(=O)O; Tle = CC(C)(C)[C@H](N)C(=O)O; Aib = CC(C)(N)C(=O)O; Sar = CNCC(=O)O

T1 sequence (P29317 24-537): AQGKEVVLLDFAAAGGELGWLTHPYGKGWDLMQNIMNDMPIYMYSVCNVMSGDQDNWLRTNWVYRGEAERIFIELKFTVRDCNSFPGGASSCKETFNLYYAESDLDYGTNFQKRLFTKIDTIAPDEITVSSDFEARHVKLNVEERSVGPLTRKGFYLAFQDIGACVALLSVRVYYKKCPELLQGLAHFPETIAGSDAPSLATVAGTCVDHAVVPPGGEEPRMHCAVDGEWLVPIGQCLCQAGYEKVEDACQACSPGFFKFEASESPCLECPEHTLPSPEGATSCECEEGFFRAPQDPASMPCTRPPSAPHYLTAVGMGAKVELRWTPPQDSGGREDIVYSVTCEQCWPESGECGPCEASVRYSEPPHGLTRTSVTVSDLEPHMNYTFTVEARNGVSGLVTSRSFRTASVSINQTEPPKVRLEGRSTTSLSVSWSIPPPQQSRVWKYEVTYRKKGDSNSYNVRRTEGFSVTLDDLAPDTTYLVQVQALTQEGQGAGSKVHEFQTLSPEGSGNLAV

For orientation: Ki means the dissociation constant of the complex between target and ligand, obtained from inhibition or displacement. Consider Ac-[Sar][Sar]A[dD]VTCP[1Nal]G[Aib]FWCPVNR[Aib]GC (linker 7-14-21 via TBMB) [Compound 178], for which the Ki came to 2.4 nM.
As to Ac-[Sar][Sar]A[dD][dD]TCPWGPFWCPVNRPGC (linker 7-14-21 via TBMB) [Compound 159], the Ki is 2.85 nM.
In the case of ADVHCPWGPFWCPV[dA]RPGCA (linker 5-12-19 via TBMB) [Compound 155], the Ki was determined as 2 nM.
With Ac-[Sar][Sar]A[dD]VTCPWG[Aib]FWCP[Tle]NR[Aib]GC (linker 7-14-21 via TBMB) [Compound 180] the figure was 3.83 nM; with Ac-[Sar][Sar]A[dD]VTCPWGP[hArg]WCPVNRPGC (linker 7-14-21 via TBMB) [Compound 171], 4.88 nM.
The same measure for Ac-[Sar][Sar]A[dH]DVPCPWGPFWCPVNRPGC (linker 8-15-22 via TBMB) [Compound 196]: 0.95 nM.
For Ac-[Sar][Sar]A[dD]DVTCPWGPFWCPVNRPGC (linker 8-15-22 via TBMB) [Compound 281], the Ki was found to be 5.78 nM.
With Ac-[Sar][Sar]A[dD]VTCPWGPFWCPVN[hArg]P[dD]C (linker 7-14-21 via TBMB) [Compound 176] the figure was 4.89 nM; with Ac-[Sar][Sar]A[dD]VTCPWG[Aib]F[1Nal]CPVNR[Aib]GC (linker 7-14-21 via TBMB) [Compound 179], 2.94 nM.
The same measure for Ac-[Sar][Sar]AD[Tle]TCPWGPFWCPVNRPGC (linker 7-14-21 via TBMB) [Compound 164]: 2.25 nM.
Consider Ac-[Sar][Sar]A[dD]VTCPWGPNWCPVNRPGC (linker 7-14-21 via TBMB) [Compound 172], for which the inhibition constant Ki came to 3.96 nM.
For Ac-[Sar][Sar]A[dD]VTCPWGPAWCPVNRPGC (linker 7-14-21 via TBMB) [Compound 173], the Ki worked out at 6.69 nM.
The same measure for Ac-[Sar][Sar]A[dD]VTCPWGPFWCPLNRPGC (linker 7-14-21 via TBMB) [Compound 174]: 9.1 nM; for ADVHCP[Dip]GPFWCPVNRPGCA (linker 5-12-19 via TBMB) [Compound 149]: 52.8 nM; for Ac-[Sar][Sar]A[dD][Gly(cPr)]TCPWGPFWCPVNRPGC (linker 7-14-21 via TBMB) [Compound 162]: 2.55 nM.
With Ac-[Sar][Sar]A[dD]VTCP[1Nal]G[Aib]F[1Nal]CPVNR[Aib]GC (linker 7-14-21 via TBMB) [Compound 181] the figure was 1.37 nM; with AHDVPCP[1Nal]GPFWCPVNRPGC (linker 6-13-20 via TBMB) [Compound 188], 1.45 nM; with Ac-[Sar][Sar]A[dD][Ala(cPr)]TCPWGPFWCPVNRPGC (linker 7-14-21 via TBMB) [Compound 161], 4.44 nM.
Consider Ac-[Sar][Sar]AHDVPCPWGPFWCPVNRPGC (linker 8-15-22 via TBMB) [Compound 193], for which the Ki was found to be 0.59 nM.
With Ac-[Sar][Sar]AADVPCPWGPFWCPVNRPGC (linker 8-15-22 via TBMB) [Compound 195] the figure was 1.01 nM; with [Sar][Sar]AHDAPCPWGPFWCPVNRPGC (linker 8-15-22 via TBMB) [Compound 214], 22.5 nM; with [Sar][Sar]AHAVPCPWGPFWCPVNRPGC (linker 8-15-22 via TBMB) [Compound 205], 1.8 nM.
With [Sar][Sar]AHEVPCPWGPFWCPVNRPGC (linker 8-15-22 via TBMB) [Compound 207] the figure was 1.3 nM.
The same measure for [Sar][Sar]AHDVACPWGPFWCPVNRPGC (linker 8-15-22 via TBMB) [Compound 218]: 1.27 nM; for AHDVPCP[1Nal]G[Aib]FWCP[Tle]NR[Aib]GC (linker 6-13-20 via TBMB) [Compound 192]: 1.75 nM; for ADVHCPWAPFWCPVNRPGCA (linker 5-12-19 via TBMB) [Compound 151]: 394 nM.
As for ADVHCPWGAFWCPVNRPGCA (linker 5-12-19 via TBMB) [Compound 152], the Ki worked out at 1.8 nM.
On to AHDVPCPWGPF[1Nal]CPVNRPGC (linker 6-13-20 via TBMB) [Compound 189], for which the Ki is 1.3 nM.
Ac-[Sar][Sar][dA]HDVPCPWGPFWCPVNRPGC (linker 8-15-22 via TBMB) [Compound 194]: the Ki was found to be 1.2 nM.
Take Ac-[Sar][Sar]A[dD][Cba]TCPWGPFWCPVNRPGC (linker 7-14-21 via TBMB) [Compound 160]: the Ki worked out at 2.6 nM.
The same measure for AHDVPCP[1Nal]GPFWCPVNRPGCA (linker 6-13-20 via TBMB) [Compound 187]: 0.32 nM.
As for ADVHCPWG[Aib]FWCPVNRPGCA (linker 5-12-19 via TBMB) [Compound 153], the Ki was determined as 0.51 nM.
The same measure for Ac-[Sar][Sar]ADVHCPWGPFWCPVNRPGC (linker 7-14-21 via TBMB) [Compound 148]: 1.2 nM; for Ac-[Sar][Sar]ADVTCPWGPFWCPVNRPGC (linker 7-14-21 via TBMB) [Compound 157]: 0.91 nM.
For Ac-[Sar][Sar]A[dD]VTCPWGPFWCPVNR[Aib][dD]C (linker 7-14-21 via TBMB) [Compound 177], the Ki was 4.43 nM.
Consider [Sar][Sar]ACPWGPFWCPVNRP[dA]C (linker 4-11-18 via TBMB) [Compound 112], for which the Ki came out at 89 nM.
With [Sar][Sar]ACP[1Nal]GPFWCP[Tle]N[hArg]PGC (linker 4-11-18 via TBMB) [Compound 130] the figure was 0.29 nM; with AHDVPCP[1Nal]GPFWCP[Tle]NRPGC (linker 6-13-20 via TBMB) [Compound 190], 0.7 nM; with Ac-[Sar][Sar]A[dD]VTCPWGPFWCPVNRP[dD]C (linker 7-14-21 via TBMB) [Compound 175], 1.78 nM.
As for [Sar][Sar]ACP[1Nal]GPFWCP[Tle]N[hArg][Aib]GC (linker 4-11-18 via TBMB) [Compound 138], the Ki amounted to 5.1 nM.
Take AHDVPCP[1Nal]G[Aib]FWCP[Tle]N[hArg]PGC (linker 6-13-20 via TBMB) [Compound 191]: the inhibition constant (Ki) worked out at 3.1 nM.
For the molecule Ac-[Sar][Sar]A[dD]VTCP[1Nal]GPFWCPVNRPGC (linker 7-14-21 via TBMB) [Compound 170], the inhibitory constant (Ki) turned out to be 0.6 nM.
The same measure for ADVHCP[1Nal]GPFWCPVNRPGCA (linker 5-12-19 via TBMB) [Compound 150]: 0.12 nM; for [Sar][Sar]A[dH]DVPCPWGPFWCPVNRPGC (linker 8-15-22 via TBMB) [Compound 197]: 1.2 nM; for ADVHCPWGPFWCPVN[dA]PGCA (linker 5-12-19 via TBMB) [Compound 156]: 14.9 nM.
The same measure for [dD]VTCPWGPFWCPVNRPGC (linker 4-11-18 via TBMB) [Compound 185]: 2.17 nM.
